Paper PMC10779054

What was measured:
[1] = biological target: SARS-CoV-2 nucleocapsid protein (SARS-CoV-2, UniProt P0DTC9 1-419); assay: aptamer-immuno-PCR (mAb sandwich, qPCR); PBS + 0.1% Tween 20 (PBST); 1 h at 21 C ([…]) or 37 C ([…]; settings: protein: commercial; chain copies: 2
Taq DNA polymerase = Taq DNA polymerase (Thermus aquaticus, UniProt P19821 1-832); assay: qPCR of aptamer bound to immobilized protein; 50 nM aptamer; 0.5 ug Taq/well; 0.1% methylcellulose, BSA or Tween 20 block; PBS + 0.1% Tween 20 (PBST); 1 h at 21 C (44/70-Taq) or 37 C (NC aptamer-nucleocapsid); wells blocked with 0.1% BSA, Tween 20 or methylcellulose; PBST washes; settings: protein: commercial

| Binder | binding result [1] | binding result (Taq DNA polymerase) |
| --- | --- | --- |
| NC aptamer (ssDNA) DNA: GCAATGGTACGGTACTTCCGGATGCGGAAACTGGCTAATTGGTGAGGCTGGGGCGGTCGTGCAGCAAAAGTGCACGCTACTTTGCTAA | binds |  |
| 44/70 aptamer (ssDNA) DNA: CCTTGAACCTGTGCCATTTGCTAATTGAGACTATTATGGGCTTTTTAGTCGAACAGTAGGAAGATGGAGG |  | binds |
